# Source: the supplement of paper PMC7877785
# ± gives the uncertainty stated by the source.
# Assay: self-splicing fitness, log relative to wild type (ln ratio); higher = more splicing; Tetrahymena group I intron in knt gene, E. coli kanamycin selection, DiMSum; sequences stand for … in CUCUCU…GGAGGGAAAAGUUAUCAGGCAUGCACCUGGUAGCUAGUCUUUAAACCAAUAGAUUGCAUCGGUUUAAAAGGCAAGACCGUCAAAUUGCGGGAAAGGGGUCAACAGCCGUUCAGUACCAAGUCUCAGGGGAAACUUUGAGAUGGCCUUGCAAAGGGUAUGGUAAUAAGCUGACGGACAUGGUCCUAACCACGCAGCCAAGUCCUAAGUCAACAGAUCUUCUGUUGAUAUGGAUGCAGUUCACAGACUAAAUGUCGGUCGGGGAAGAUGUAUUCUUCUCAUAAGAUAUAGUCGGACCUCUCCUUAAUGGGAGCUAGCGGAUGAAGUGAUGCAACACUGGAGCCGCUGGGAACUAAUUUGUAUGCGAAAGUAUAUUGAUUAGUUUUGGAGUACUCGUGGUCG
# How it was run: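 Pooled colonies went to amplicon sequencing on an Illumina HiSeq 2500 after six replicate transformations. The plates were LB agar with 100 μg/mL carbenicillin, 50 μM IPTG and 0.2% rhamnose, with or without 25 μg/mL kanamycin, incubated overnight at 37°C or 30°C. The E. coli BL21(DE3) library had all eight P1ex-region intron nucleotides randomised, the intron placed in the knt kanamycin-resistance gene on pET-22b(+). DiMSum fitness is the error-weighted combination of replicate fold changes, kanamycin against none, normalised to wild type.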
Sequence,self-splicing fitness (ln) (30 °C),self-splicing fitness (ln) (37 °C)
CAUGAGCAAUAUUACGUCUG,-1.41 ± 0.073,-1.06 ± 0.073
CAUGAGCAAUAUUACGUGGG,-4.29 ± 0.27,-3.23 ± 0.32
CAUGAGCAAUAUUACGUUAU,-3.12 ± 0.14,-2.54 ± 0.24
CAUUAGCAAUAUUACGAACU,-2.29 ± 0.31,-2.63 ± 0.36
CAUUAGCAAUAUUACGAAUU,-2.07 ± 0.22,-1.2 ± 0.17
CAUUAGCAAUAUUACGACGA,-2.25 ± 0.28,-1.6 ± 0.2
CAUUAGCAAUAUUACGAGCA,-3.42 ± 0.23,-2.28 ± 0.14
CAUUAGCAAUAUUACGAGCU,-2.57 ± 0.33,-2.7 ± 0.44
CAUUAGCAAUAUUACGAUAU,-2.91 ± 0.2,-3.27 ± 0.3
CAUUAGCAAUAUUACGCAUA,-2.03 ± 0.18,-1.06 ± 0.15
CAUUAGCAAUAUUACGCUGU,-2.72 ± 0.13,-2.21 ± 0.18
CAUUAGCAAUAUUACGCUUU,-3.35 ± 0.23,-1.06 ± 0.16
CAUUAGCAAUAUUACGGAGU,-3.87 ± 0.19,-2.7 ± 0.2
CAUUAGCAAUAUUACGGCCG,0.721 ± 0.13,0.409 ± 0.14
CAUUAGCAAUAUUACGGGCC,-2.71 ± 0.23,-2.95 ± 0.43
CAUUAGCAAUAUUACGGGGU,-3.26 ± 0.17,-2.25 ± 0.17
CAUUAGCAAUAUUACGGUCC,–,-1.72 ± 0.34
CAUUAGCAAUAUUACGGUCG,-0.452 ± 0.14,0.576 ± 0.14
CAUUAGCAAUAUUACGUAAA,-2.93 ± 0.15,-1.34 ± 0.15
CAUUAGCAAUAUUACGUACA,-2.7 ± 0.21,-2.58 ± 0.2
CAUUAGCAAUAUUACGUCGU,-4.03 ± 0.26,-0.437 ± 0.17
CAUUAGCAAUAUUACGUCUG,-0.197 ± 0.062,0.00612 ± 0.072
CAUUAGCAAUAUUACGUGCC,-2.77 ± 0.29,-2.26 ± 0.45
CAUUAGCAAUAUUACGUGGC,-2.79 ± 0.36,-2.09 ± 0.33

Sequence,self-splicing fitness (ln) (30 °C),self-splicing fitness (ln) (37 °C)
CAUUAGCAAUAUUACGUUAU,–,-1.91 ± 0.22
CAUUAGCAAUAUUACGUUGU,-3.95 ± 0.23,-2.75 ± 0.22
CCAAAGCAAUAUUACGAAAC,-3.13 ± 0.2,-2.95 ± 0.34
CCAAAGCAAUAUUACGAAAG,-1.14 ± 0.088,-0.678 ± 0.11
CCAAAGCAAUAUUACGAACU,-2.89 ± 0.29,-2.13 ± 0.38
CCAAAGCAAUAUUACGACGG,-3.1 ± 0.14,-2.43 ± 0.19
CCAAAGCAAUAUUACGAGAU,-3.13 ± 0.2,-2.5 ± 0.23
CCAAAGCAAUAUUACGAGCU,-3.38 ± 0.22,-2.14 ± 0.22
CCAAAGCAAUAUUACGAGUC,-3.73 ± 0.2,-2.04 ± 0.19
CCAAAGCAAUAUUACGCAAC,-1.96 ± 0.1,-2.53 ± 0.23
CCAAAGCAAUAUUACGCAUC,-3.89 ± 0.16,-3.05 ± 0.16
CCAAAGCAAUAUUACGCCCA,-2.49 ± 0.33,-2.72 ± 0.34
CCAAAGCAAUAUUACGCCUU,-3.62 ± 0.34,-2.88 ± 0.32
CCAAAGCAAUAUUACGCGAG,-2.62 ± 0.098,-1.42 ± 0.094
CCAAAGCAAUAUUACGCGGA,-3.47 ± 0.22,-2.76 ± 0.3
CCAAAGCAAUAUUACGCUGA,-4.48 ± 0.36,-2.75 ± 0.19
CCAAAGCAAUAUUACGCUUG,-3.7 ± 0.18,-2.93 ± 0.2
CCAAAGCAAUAUUACGGCAU,-3.72 ± 0.15,-2.23 ± 0.15
CCAAAGCAAUAUUACGGCUA,-4.05 ± 0.43,-2.28 ± 0.28
CCAAAGCAAUAUUACGGGAG,-3.08 ± 0.18,-2.78 ± 0.26
CCAAAGCAAUAUUACGGGAU,-3.6 ± 0.15,-2.37 ± 0.14
CCAAAGCAAUAUUACGUAAA,-3.24 ± 0.11,-2.07 ± 0.14
CCAAAGCAAUAUUACGUAAU,-4.12 ± 0.18,-2.62 ± 0.19
CCAAAGCAAUAUUACGUAGA,-3.5 ± 0.17,-2.55 ± 0.18
